How the values were obtained:
C3b C3b (Homo sapiens) = C3b C3b (Homo sapiens) (UniProt P01024); details: cited from earlier work
[1] = target: SCR-17/18H deglycosylated with PNGase F (human); assay: AUC; sedimentation velocity of the SCR fragments, 20 °C, 50,000 rpm, Hepes buffer (10 mM Hepes, 137 mM NaCl, pH 7.4), c(s) analysis in SEDFIT, proportions of monomer and dimer from peak integration; monomer to dimer

C3b C3b (Homo sapiens), sequence (P01024 566-670): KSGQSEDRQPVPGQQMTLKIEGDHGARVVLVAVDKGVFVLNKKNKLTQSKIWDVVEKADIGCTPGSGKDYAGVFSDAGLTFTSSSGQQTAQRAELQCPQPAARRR
Complement factor H, sequence (P08603 19-1231): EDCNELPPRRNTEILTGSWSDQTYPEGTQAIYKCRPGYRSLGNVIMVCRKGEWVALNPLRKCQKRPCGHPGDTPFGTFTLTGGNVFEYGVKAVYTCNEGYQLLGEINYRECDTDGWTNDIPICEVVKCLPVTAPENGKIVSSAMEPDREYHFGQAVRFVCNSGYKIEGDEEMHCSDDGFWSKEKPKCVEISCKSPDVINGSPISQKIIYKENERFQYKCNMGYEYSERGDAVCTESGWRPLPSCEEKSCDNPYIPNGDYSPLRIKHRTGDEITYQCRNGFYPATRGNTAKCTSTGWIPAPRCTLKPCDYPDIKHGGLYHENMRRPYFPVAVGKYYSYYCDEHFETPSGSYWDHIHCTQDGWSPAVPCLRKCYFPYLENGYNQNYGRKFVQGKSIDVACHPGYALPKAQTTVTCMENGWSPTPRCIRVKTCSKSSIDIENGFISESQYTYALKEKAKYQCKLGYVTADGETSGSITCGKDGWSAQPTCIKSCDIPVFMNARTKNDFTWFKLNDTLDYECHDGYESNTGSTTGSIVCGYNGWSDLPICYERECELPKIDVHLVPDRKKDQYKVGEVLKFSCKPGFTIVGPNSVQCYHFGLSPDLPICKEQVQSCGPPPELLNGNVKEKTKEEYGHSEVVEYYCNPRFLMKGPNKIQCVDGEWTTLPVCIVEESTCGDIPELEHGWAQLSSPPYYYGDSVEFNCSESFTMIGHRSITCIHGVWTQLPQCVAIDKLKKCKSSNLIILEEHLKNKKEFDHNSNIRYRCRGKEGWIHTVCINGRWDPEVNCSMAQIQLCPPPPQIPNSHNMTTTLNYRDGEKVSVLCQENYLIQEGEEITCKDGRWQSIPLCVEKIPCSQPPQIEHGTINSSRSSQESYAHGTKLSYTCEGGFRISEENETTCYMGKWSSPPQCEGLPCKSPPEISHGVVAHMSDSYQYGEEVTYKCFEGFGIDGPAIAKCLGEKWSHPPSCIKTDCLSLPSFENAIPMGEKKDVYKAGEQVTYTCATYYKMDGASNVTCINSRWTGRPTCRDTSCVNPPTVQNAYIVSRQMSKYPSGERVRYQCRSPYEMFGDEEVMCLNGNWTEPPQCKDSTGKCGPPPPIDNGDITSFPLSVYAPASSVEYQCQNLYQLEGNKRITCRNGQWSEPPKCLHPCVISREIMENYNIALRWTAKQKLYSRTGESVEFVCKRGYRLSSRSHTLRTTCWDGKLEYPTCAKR

Complement factor H (from UniProt P08603)
Kd (C3b C3b (Homo sapiens)): 1.06 µM

SCR-17/18H deglycosylated with PNGase F (domain or fragment)
proportion of dimer [1]: 16% | stoichiometry N [1]: 2
